Drawing on US20240376180A1, this text covers percent neutralization of pseudovirus for 1 substance.

This experiment has as its target SARS-CoV spike on S-pseudotyped MLV virions (SARS-CoV). Description: cell-based or functional assay.

COVA1-16 (antibody) came in with a percent neutralization of pseudovirus at 200 µg, antibody alone of 28%.
